Test system: T1, Nc1ncnc2c1ncn2[C@@H]1O[C@H](COP(=O)(O)OP(=O)(O)OP(=O)(O)O)[C@@H](O)[C@H]1O
T1 construct: entire endogenous HER2, ligand-free HER2 complexes immunoprecipitated from SKBR3 cells
Assay: Michaelis-Menten titration of ATP, single-molecule pTyr1196 immunolabeling (KM)
Format: biochemical, Homo sapiens
Settings: Mg2+

Substance: HER2 (Homo sapiens)
- Km: 16.46 µM

Source: article PMC7176432, “Single-molecule functional anatomy of endogenous HER2-HER3 heterodimers” (eLife, 2020)
